According to the supplement of paper PMC10567573:

B1: TEKT4 (parent)
chain: YARYHQAFADRDQSERQRHESQQL

Variants of: B1
Assay: protein stability index of a GFP-peptide fusion (GPS, HEK-293T) (PSI 1-6); higher = more stable
Conditions: c terminus: a fixed tail appended
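Note: lentivirally expressed fusions sorted by FACS into six bins by GFP to DsRed ratio, PSI derived from sequencing read proportions per bin multiplied by bin number.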

Row | Variant | protein stability index
1 | YARYHQAFADYDQSERQRHESQQL [R11Y] | 1.64
2 | YARYHQAFADRAQSERQRHESQQL [D12A] | 1.43
3 | YARYHQAFADRCQSERQRHESQQL [D12C] | 2.17
4 | YARYHQAFADREQSERQRHESQQL [D12E] | 2.01
5 | YARYHQAFADRFQSERQRHESQQL [D12F] | 1.85
6 | YARYHQAFADRGQSERQRHESQQL [D12G] | 2.08
7 | YARYHQAFADRHQSERQRHESQQL [D12H] | 2.15
8 | YARYHQAFADRIQSERQRHESQQL [D12I] | 2.58
9 | YARYHQAFADRKQSERQRHESQQL [D12K] | 1.67
10 | YARYHQAFADRLQSERQRHESQQL [D12L] | 1.98
11 | YARYHQAFADRMQSERQRHESQQL [D12M] | 1.7
12 | YARYHQAFADRNQSERQRHESQQL [D12N] | 1.93
13 | YARYHQAFADRPQSERQRHESQQL [D12P] | 1.57
14 | YARYHQAFADRQQSERQRHESQQL [D12Q] | 2.31
15 | YARYHQAFADRRQSERQRHESQQL [D12R] | 1.44
16 | YARYHQAFADRSQSERQRHESQQL [D12S] | 1.67
17 | YARYHQAFADRTQSERQRHESQQL [D12T] | 2.12
18 | YARYHQAFADRVQSERQRHESQQL [D12V] | 2.06
19 | YARYHQAFADRWQSERQRHESQQL [D12W] | 2.99
20 | YARYHQAFADRYQSERQRHESQQL [D12Y] | 1.86
21 | YARYHQAFADRDASERQRHESQQL [Q13A] | 1.96
22 | YARYHQAFADRDCSERQRHESQQL [Q13C] | 2.13
23 | YARYHQAFADRDDSERQRHESQQL [Q13D] | 2.35
24 | YARYHQAFADRDESERQRHESQQL [Q13E] | 1.74

Row | Variant | protein stability index
25 | YARYHQAFADRDFSERQRHESQQL [Q13F] | 1.83
26 | YARYHQAFADRDGSERQRHESQQL [Q13G] | 2.08
27 | YARYHQAFADRDHSERQRHESQQL [Q13H] | 2.19
28 | YARYHQAFADRDISERQRHESQQL [Q13I] | 2.35
29 | YARYHQAFADRDKSERQRHESQQL [Q13K] | 1.91
30 | YARYHQAFADRDLSERQRHESQQL [Q13L] | 2.49
31 | YARYHQAFADRDMSERQRHESQQL [Q13M] | 1.64
32 | YARYHQAFADRDNSERQRHESQQL [Q13N] | 2.22
33 | YARYHQAFADRDPSERQRHESQQL [Q13P] | 2.36
34 | YARYHQAFADRDRSERQRHESQQL [Q13R] | 1.88
35 | YARYHQAFADRDSSERQRHESQQL [Q13S] | 2.49
36 | YARYHQAFADRDTSERQRHESQQL [Q13T] | 1.79
37 | YARYHQAFADRDVSERQRHESQQL [Q13V] | 1.99
38 | YARYHQAFADRDWSERQRHESQQL [Q13W] | 1.72
39 | YARYHQAFADRDYSERQRHESQQL [Q13Y] | 1.85
40 | YARYHQAFADRDQAERQRHESQQL [S14A] | 1.88
41 | YARYHQAFADRDQCERQRHESQQL [S14C] | 1.46
42 | YARYHQAFADRDQDERQRHESQQL [S14D] | 2.76
43 | YARYHQAFADRDQEERQRHESQQL [S14E] | 2.59
44 | YARYHQAFADRDQFERQRHESQQL [S14F] | 1.48
45 | YARYHQAFADRDQGERQRHESQQL [S14G] | 1.8
46 | YARYHQAFADRDQHERQRHESQQL [S14H] | 1.99
47 | YARYHQAFADRDQIERQRHESQQL [S14I] | 2.16
48 | YARYHQAFADRDQKERQRHESQQL [S14K] | 2.22

Row | Variant | protein stability index
49 | YARYHQAFADRDQLERQRHESQQL [S14L] | 2.72
50 | YARYHQAFADRDQMERQRHESQQL [S14M] | 1.79
51 | YARYHQAFADRDQNERQRHESQQL [S14N] | 2.21
52 | YARYHQAFADRDQPERQRHESQQL [S14P] | 3.2
53 | YARYHQAFADRDQQERQRHESQQL [S14Q] | 2.13
54 | YARYHQAFADRDQRERQRHESQQL [S14R] | 1.63
55 | YARYHQAFADRDQTERQRHESQQL [S14T] | 2.37
56 | YARYHQAFADRDQVERQRHESQQL [S14V] | 2.31
57 | YARYHQAFADRDQWERQRHESQQL [S14W] | 1.71
58 | YARYHQAFADRDQYERQRHESQQL [S14Y] | 2.07
59 | YARYHQAFADRDQSARQRHESQQL [E15A] | 1.87
60 | YARYHQAFADRDQSCRQRHESQQL [E15C] | 2.36
61 | YARYHQAFADRDQSDRQRHESQQL [E15D] | 2.1
62 | YARYHQAFADRDQSFRQRHESQQL [E15F] | 2.76
63 | YARYHQAFADRDQSGRQRHESQQL [E15G] | 1.9
64 | YARYHQAFADRDQSHRQRHESQQL [E15H] | 1.75
65 | YARYHQAFADRDQSIRQRHESQQL [E15I] | 1.52
66 | YARYHQAFADRDQSKRQRHESQQL [E15K] | 1.73
67 | YARYHQAFADRDQSLRQRHESQQL [E15L] | 2.18
68 | YARYHQAFADRDQSMRQRHESQQL [E15M] | 1.31
69 | YARYHQAFADRDQSNRQRHESQQL [E15N] | 2.35
70 | YARYHQAFADRDQSPRQRHESQQL [E15P] | 1.8
71 | YARYHQAFADRDQSQRQRHESQQL [E15Q] | 1.97
72 | YARYHQAFADRDQSRRQRHESQQL [E15R] | 1.78

Row | Variant | protein stability index
73 | YARYHQAFADRDQSSRQRHESQQL [E15S] | 1.76
74 | YARYHQAFADRDQSTRQRHESQQL [E15T] | 2.07
75 | YARYHQAFADRDQSVRQRHESQQL [E15V] | 1.83
76 | YARYHQAFADRDQSWRQRHESQQL [E15W] | 1.61
77 | YARYHQAFADRDQSYRQRHESQQL [E15Y] | 1.09
78 | YARYHQAFADRDQSEAQRHESQQL [R16A] | 2.35
79 | YARYHQAFADRDQSECQRHESQQL [R16C] | 2.63
80 | YARYHQAFADRDQSEDQRHESQQL [R16D] | 2.4
81 | YARYHQAFADRDQSEEQRHESQQL [R16E] | 2.43
82 | YARYHQAFADRDQSEFQRHESQQL [R16F] | 2.81
83 | YARYHQAFADRDQSEGQRHESQQL [R16G] | 2.48
84 | YARYHQAFADRDQSEHQRHESQQL [R16H] | 2.28
85 | YARYHQAFADRDQSEIQRHESQQL [R16I] | 2.2
86 | YARYHQAFADRDQSEKQRHESQQL [R16K] | 1.93
87 | YARYHQAFADRDQSELQRHESQQL [R16L] | 3.1
88 | YARYHQAFADRDQSEMQRHESQQL [R16M] | 1.89
89 | YARYHQAFADRDQSENQRHESQQL [R16N] | 2.4
90 | YARYHQAFADRDQSEPQRHESQQL [R16P] | 2.08
91 | YARYHQAFADRDQSEQQRHESQQL [R16Q] | 2.21
92 | YARYHQAFADRDQSESQRHESQQL [R16S] | 2
93 | YARYHQAFADRDQSETQRHESQQL [R16T] | 2.26
94 | YARYHQAFADRDQSEVQRHESQQL [R16V] | 2.35
